# Earlier results in PMC8746970, “Determination of the Peptide AWRK6 in Rat Plasma by Liquid Chromatography-Tandem Mass Spectrometry (LC-MS/MS) and Its Application to Pharmacokinetics” (Molecules, 2021).
# Conditions: in vivo; cited from earlier work
substance,measurement,value
glucagon-like peptide-1 [GLP-1],elimination half-life,~ 2 min
